Assay results published in the supplement of paper PMC10567573.

B1: SCNN1D (parent)
chain: RRPSPVLRHLELLDEFARENIDSL
B2: PTPLAD1 (parent)
chain: YINFRHLYKQRRRRYGQKKKKIH

Variants of: B1
Assay: protein stability index of a GFP-peptide fusion (GPS, HEK-293T) (PSI 1-6); higher = more stable
Settings: c terminus: a fixed tail appended
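Also: lentivirally expressed fusions sorted by FACS into six bins by GFP to DsRed ratio, PSI derived from sequencing read proportions per bin multiplied by bin number.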

Variant | protein stability index
I21S | 3.85
I21F | 2.74
I21W | 1.87
I21L | 2.95
I21V | 2.87
I21G | 3.38
I21P | 4.41
I21M | 2.89
I21R | 2.96
I21E | 3.27
I21Y | 2.34
I21C | 2.43
I21T | 2.98
I21Q | 3.59
I21K | 3.36
I21N | 2.81
I21A | 3.04
I21H | 3.61
I21D | 3.36
A17Y | 2.9
A17H | 3.74
A17Q | 3.16
A17G | 3.72

Variant | protein stability index
A17L | 3.07
A17F | 2.24
A17T | 3.62
A17M | 2.92
A17W | 3.03
A17D | 4.43
A17R | 2.94
A17N | 4.14
A17V | 2.94
A17I | 2.46
A17K | 3.98
A17S | 4.37
A17P | 3.48
A17E | 4.18
A17C | 3.38
R18I | 2.44
R18Q | 2.84
R18C | 2.48
R18Y | 2.7
R18D | 3.44
R18K | 3.67
R18E | 3.12
R18L | 2.43

Variant | protein stability index
R18T | 3.16
R18H | 3.17
R18W | 1.73
R18N | 2.42
R18M | 2.98
R18A | 2.37
R18F | 3
R18G | 3.6
R18V | 2.35
R18P | 4.25
R18S | 3.26
D22V | 2.03
D22L | 1.55
D22G | 2.41
D22M | 1.47
D22N | 3.12
D22F | 1.57
D22H | 2.87
D22Y | 1.8
D22P | 2.22
D22A | 2.97
D22E | 2.99
D22S | 2.42

Variant | protein stability index
D22Q | 2.47
D22R | 2.76
D22W | 1.68
D22T | 2.18
D22C | 1.7
D22I | 2.15
D22K | 2.97
F16V | 3.95
F16W | 2.64
F16S | 4.57
F16Y | 3.09
F16T | 4.21
L24Y | 2.55
L24E | 3.25
L24H | 2.88
L24K | 3.29
L24G | 3.06
L24M | 2.4
L24I | 2.46
L24V | 2.67
L24Q | 3.23
L24F | 2.07
L24N | 3.29

Variant | protein stability index
L24W | 2.06
L24C | 2.73
L24T | 3.3
L24S | 3.04
L24D | 3.15
L24A | 3.52
L24P | 3.19
L24R | 3.17
E19H | 2.5
E19C | 2.66
E19R | 2.61
E19W | 1.82
E19T | 3.16
E19D | 2.73
E19P | 2.72
E19S | 2.74
E19G | 3.88
E19A | 3.18
E19I | 2.5
E19F | 2.46
E19V | 2.88
E19M | 2.88
E19Y | 2.39

Variant | protein stability index
E19Q | 2.68
E19L | 2.52
E19N | 2.89
E19K | 2.74
S23V | 2.45
S23M | 2.56
S23C | 2.5
S23G | 3.33
S23K | 3.56
S23W | 1.32
S23F | 1.74
S23Q | 2.27
S23H | 2.7
S23N | 2.94
S23R | 3.44
S23E | 2.92
S23D | 2.57
S23I | 2.26
S23A | 2.07
S23T | 2.74
S23P | 2.99
S23Y | 2.46
S23L | 2.72

Variant | protein stability index
N20S | 2.36
N20L | 2.17
N20C | 2.33
N20Y | 2.07
N20W | 2.85
N20A | 2.35
N20G | 2.88
N20V | 2.54
N20T | 1.93
N20K | 3.34
N20D | 3.65
N20E | 1.88
N20I | 1.74
N20H | 1.85
N20M | 1.77
N20R | 2.72
N20Q | 2.08
N20P | 3.04
N20F | 2.52

Variants of: B2
Assay: as above
Settings: c terminus: native

Variant | protein stability index
R11H | 2.15
R11P | 2.84
R11K | 1.65
R11Q | 2.37
R11N | 2.91
R11L | 1.61
R11C | 1.58
R11D | 1.39
R11G | 2.54
R11F | 1.73
R11A | 1.72
R11M | 1.32
R5L | 1.79
R5I | 1.53
R5Q | 2.3
R5A | 2.93
R5C | 1.45
R5M | 1.59
R5D | 2.02
R5N | 1.57
R5Y | 2.37
R5K | 2.51
R5P | 2.49
R5E | 3.34
R5W | 1.55
R5T | 2.38

Variant | protein stability index
R5F | 2.14
R5S | 1.17
R5H | 1.8
R5G | 1.38
N3C | 1.57
N3R | 4.4
N3H | 2.52
N3L | 2.72
N3F | 2.51
N3E | 1.61
N3P | 2.09
N3K | 1.97
N3Q | 1.29
N3Y | 1.71
N3S | 2.68
N3D | 2.39
N3T | 2.31
N3I | 1.58
N3V | 1.61
N3W | 1.37
N3A | 1.9
I2H | 1.29
I2S | 2.53
I2P | 2.9
I2L | 3.44
I2N | 3.6

Variant | protein stability index
I2A | 2.7
I2R | 2.05
I2K | 2.27
I2V | 1.97
I2C | 2.2
I2G | 2.19
I2Q | 3.45
I2M | 2
I2Y | 2.1
I2D | 3.45
I2F | 3.06
L7Y | 2.29
L7F | 1.41
L7D | 3.07
L7E | 2.79
L7P | 2.92
L7R | 2.77
L7N | 2.72
L7S | 2.04
L7G | 2.68
L7H | 2.31
L7I | 1.94
L7T | 2.26
L7A | 2.01
L7Q | 2.24
L7V | 2.93

Variant | protein stability index
L7M | 2.31
K9L | 1.55
K9A | 3.21
K9S | 2.6
K9N | 2.8
K9Q | 1.92
K9G | 1.95
K9P | 2.27
K9T | 2.12
K9Y | 2.6
K9H | 2.17
K9V | 1.91
K9D | 3.3
K9R | 3.03
K9I | 2.26
K9C | 1.83
K9W | 2.45
K9E | 2.03
Y8I | 1.56
Y8D | 3.25
Y8R | 2.2
Y8C | 2.01
Y8H | 2.31
Y8A | 2.52
Y8N | 2.72
Y8G | 2.03

Variant | protein stability index
Y8T | 1.76
Y8L | 1.76
Y8K | 2.5
Y8E | 2.18
Y8W | 2.9
Y8P | 2.81
Y8S | 1.95
F4K | 3.29
F4P | 1.64
F4S | 3.2
F4N | 2.29
F4I | 2.43
F4W | 1.1
F4G | 1.9
F4H | 3.71
F4Y | 1.99
F4Q | 2.77
F4M | 1.74
F4T | 2.01
F4D | 3.02
F4R | 2.96
F4C | 2.03
F4L | 2.87
F4E | 3.23
Y1N | 2.97
Y1H | 2.9

Variant | protein stability index
Y1Q | 2.24
Y1V | 2.1
Y1W | 2.96
Y1T | 2.25
Y1E | 2.5
Y1C | 1.59
Y1S | 3.15
Y1L | 1.79
Y1A | 2.93
Y1G | 2.01
Y1R | 1.35
Y1D | 3.48
Y1K | 1.94
Y1P | 1.93
Y1I | 1.17
Q10M | 1.96
Q10W | 1.8
Q10Y | 2.06
Q10K | 2
Q10T | 2.29
Q10D | 1.88
Q10P | 1.66
Q10L | 2.14
Q10I | 1.3
Q10R | 2.26
Q10S | 1.7

Variant | protein stability index
Q10V | 1.47
Q10C | 2.22
Q10G | 1.92
Q10A | 2.59
Q10E | 1.96
Q10H | 2.27
Q10F | 2.15
H6K | 2.44
H6S | 1.84
H6F | 1.54
H6G | 1.75
H6W | 1.75
H6V | 2.06
H6P | 1.7
H6Y | 1.88
H6E | 1.73
H6C | 2.14
H6M | 1.75
H6T | 2.02
H6L | 2.3
H6A | 1.81
